For data set [1], the system named is rabbit ulna critical size defect. In words: In vivo bone regeneration, rabbit ulna critical size defect. The text has this:
A collagen scaffold containing […] indicated by SEQ NO. 2 peptide was implanted into a critical size defect in a rabbit ulna model. […] 2 peptide eight weeks after the surgery. […] FIG. 10A is a low-magnification image and FIG. 10B is a close up of the area in FIG. 10A identified by a rectangle, of H&E stained nondecalcified sections of the regenerating ulnar bone eight weeks after the surgery.

The next data set concerns collagen fibrils. The note with it: cited from earlier work.

Where two headings read alike, the source gives them in different places.

B1: … (peptide)
chain: RRRDEDESSDSSDSSDSSDSSDSSDSSDSSDSSDSSDSSDSSDSSDSSDSSDSSDSSDSSDSSDSSDDEG
modifications: derived from consensus mammalian sequence of DSPP; (8)..(68) [Asp Ser Ser] repeats (n varies from 2 to 20); (1)..(3) Insertion of 3 Arg at the N terminus of the peptide; (4)..(7) Casein kinase 1 recognition motif; (69)..(71) Casein kinase 2 recognition motif
Take B1: the “bone re-growth (MicroCT)” value in data set [1] (collagen scaffold containing peptide, 8 weeks, versus no implant) was “significant bone re-growth”. In data set [1] (eight weeks after the surgery), the “bridging of the defect (H&E nondecalcified sections)” value is listed as “almost complete bridging of the critical size defect by bone”.

B2: phosphophoryn (protein, UniProt Q9NZW4 463-1301, looked up)
Dentin phosphoprotein: DDPNSSDESNGNDDANSESDNNSSSRGDASYNSDESKDNGNGSDSKGAEDDDSDSTSDTNNSDSNGNGNNGNDDNDKSDSGKGKSDSSDSDSSDSSNSSDSSDSSDSDSSDSNSSSDSDSSDSDSSDSSDSDSSDSSNSSDSSDSSDSSDSSDSSDSSDSKSDSSKSESDSSDSDSKSDSSDSNSSDSSDNSDSSDSSNSSNSSDSSDSSDSSDSSSSSDSSNSSDSSDSSDSSNSSESSDSSDSSDSDSSDSSDSSNSNSSDSDSSNSSDSSDSSNSSDSSDSSDSSNSSDSSDSSDSSNSSDSSDSSDSSDSSDSSNSSDSNDSSNSSDSSDSSNSSDSSNSSDSSDSSDSSDSDSSNSSDSSNSSDSSDSSNSSDSSDSSDSSDGSDSDSSNRSDSSNSSDSSDSSDSSNSSDSSDSSDSNESSNSSDSSDSSNSSDSDSSDSSNSSDSSDSSNSSDSSESSNSSDNSNSSDSSNSSDSSDSSDSSNSSDSSNSSDSSNSSDSSDSNSSDSSDSSNSSDSSDSSDSSDSSDSSDSSNSSDSSDSSDSSDSSNSSDSSNSSDSSNSSDSSDSSDSSDSSDSSDSSDSSDSSNSSDSSDSSDSSDSSDSSDSSDSSDSSESSDSSDSSNSSDSSDSSDSSDSSDSSDSSDSSDSSDSSNSSDSSDSSDSSDSSDSSNSSDSSDSSESSDSSDSSDSSDSSDSSDSSDSSDSSDSSNSSDSSDSSDSSDSSDSSDSSDSSDSSDSSDSSDSSDSSDSSDSSDSSDSSDSNESSDSSDSSDSSDSSNSSDSSDSSDSSDSTSDSNDESDSQSKSGNGNNNGSDSDSDSEGSDSNHSTSDD
modifications: Dentin phosphoprotein
notes: major non-collagenous protein in dentin, Ser-Ser-Asp repeat motifs
With B2, the collagen fibril mineralization entry in the data set with collagen fibrils (nonphosphorylated protein) was “no organized mineralization of collagen fibrils was observed”; with collagen fibrils (phosphorylated protein), “highly organized mineralized collagen fibrils”.

B3: dentin matrix protein 1 (protein, UniProt Q13316 17-513, looked up)
Dentin matrix acidic …: LPVTRYQNNESEDSEEWKGHLAQAPTPPLESSESSEGSKVSSEEQANEDPSDSTQSEEGLGSDDHQYIYRLAGGFSRSTGKGGDDKDDDEDDSGDDTFGDDDSGPGPKDRQEGGNSRLGSDEDSDDTIQASEESAPQGQDSAQDTTSESRELDNEDRVDSKPEGGDSTQESESEEHWVGGGSDGESSHGDGSELDDEGMQSDDPESIRSERGNSRMNSAGMKSKESGENSEQANTQDSGGSQLLEHPSRKIFRKSRISEEDDRSELDDNNTMEEVKSDSTENSNSRDTGLSQPRRDSKGDSQEDSKENLSQEESQNVDGPSSESSQEANLSSQENSSESQEEVVSESRGDNPDPTTSYVEDQEDSDSSEEDSSHTLSHSKSESREEQADSESSESLNFSEESPESPEDENSSSQEGLQSHSSSAESQSEESHSEEDDSDSQDSSRSKEDSNSTESKSSSEEDGQLKNIEIESRKLTVDAYHNKPIGDQDDNDCQDGY
Consider B3, for which the values for the collagen fibril mineralization entry in the data set on collagen fibrils (nonphosphorylated protein) and in the data set on collagen fibrils (phosphorylated protein) were “no organized mineralization of collagen fibrils was observed” and “highly organized mineralized collagen fibrils”, respectively.

(Values after patent US10736988B2, “Bone substitute nanocomposites and methods of synthesis using multiphosphorylated peptides” (UNIVERSITY OF PITTSBURGH—OF THE COMMONWEALTH SYSTEM OF …, priority 2012, dated 2020).)
